{"source": "paper PMC3468084", "key": {"KpDnaB helicase [1]": {"biological_target": "T1, KpDnaB helicase (Klebsiella pneumoniae, UniProt A6TGW0 1-471)", "assay": "EMSA; no flavonol; apparent Kd; 20 mM HEPES pH 7.0, 100 mM NaCl, 25 C, 30 min, 1.7 nM dT30, no Mg2+ or nucleotide stated; native 8% PAGE in TBE at 4 C"}, "KpDnaB helicase [2]": {"biological_target": "T1, KpDnaB helicase", "assay": "EMSA; 16.7 uM quercetin; apparent Kd; 20 mM HEPES pH 7.0, 100 mM NaCl, 25 C, 30 min, 1.7 nM dT30, no Mg2+ or nucleotide stated; native 8% PAGE in TBE at 4 C"}, "KpDnaB helicase [3]": {"biological_target": "T1, KpDnaB helicase", "assay": "EMSA; 16.7 uM myricetin; apparent Kd; 20 mM HEPES pH 7.0, 100 mM NaCl, 25 C, 30 min, 1.7 nM dT30, no Mg2+ or nucleotide stated; native 8% PAGE in TBE at 4 C"}, "KpDnaB helicase [4]": {"biological_target": "T1, KpDnaB helicase", "assay": "EMSA; 16.7 uM kaempferol; apparent Kd; 20 mM HEPES pH 7.0, 100 mM NaCl, 25 C, 30 min, 1.7 nM dT30, no Mg2+ or nucleotide stated; native 8% PAGE in TBE at 4 C"}, "KpDnaB helicase [5]": {"biological_target": "T1, KpDnaB helicase", "assay": "EMSA; 16.7 uM galangin; apparent Kd; 20 mM HEPES pH 7.0, 100 mM NaCl, 25 C, 30 min, 1.7 nM dT30, no Mg2+ or nucleotide stated; native 8% PAGE in TBE at 4 C"}}}
{"binder": "TTTTTTTTTTTTTTTTTTTTTTTTTTTTTT (ssDNA)", "note": "[dT30]", "values": [{"measurement": "Kd", "setting": "KpDnaB helicase [1]", "value": "970 ± 70", "unit": "nM"}, {"measurement": "Kd", "setting": "KpDnaB helicase [2]", "value": "1030 ± 70", "unit": "nM"}, {"measurement": "Kd", "setting": "KpDnaB helicase [3]", "value": "1110 ± 50", "unit": "nM"}, {"measurement": "Kd", "setting": "KpDnaB helicase [4]", "value": "1100 ± 50", "unit": "nM"}, {"measurement": "Kd", "setting": "KpDnaB helicase [5]", "value": "1030 ± 60", "unit": "nM"}]}
